The source of these data is patent US20160153020A1 (GLYCOTREK, published 2016).

In this assay the target is T1, DC-SIGN (human lectin receptor) expressed on a recombinant HEK cell line (human, UniProt Q9NNX6 1-404).
T1 construct: whole, on cells; The construct in the HEK cell line is not described
T1 sequence (looked up): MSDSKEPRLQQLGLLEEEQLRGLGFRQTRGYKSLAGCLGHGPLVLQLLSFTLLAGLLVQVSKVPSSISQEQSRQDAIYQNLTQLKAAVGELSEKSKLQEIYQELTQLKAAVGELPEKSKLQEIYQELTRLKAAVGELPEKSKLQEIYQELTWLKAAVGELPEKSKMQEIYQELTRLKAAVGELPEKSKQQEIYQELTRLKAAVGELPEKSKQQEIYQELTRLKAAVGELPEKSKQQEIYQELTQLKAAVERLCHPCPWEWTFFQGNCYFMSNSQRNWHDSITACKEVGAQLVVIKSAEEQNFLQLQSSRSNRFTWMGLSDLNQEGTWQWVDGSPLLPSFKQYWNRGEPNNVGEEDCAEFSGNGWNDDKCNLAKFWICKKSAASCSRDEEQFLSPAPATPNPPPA
The experiment in a line: binding to recombinant HEK cells expressing DC-SIGN (method not described).

B1: infliximab produced in CHO cell lines (antibody, V domains shown)
VH: EVKLEESGGGLVQPGGSMKLSCVASGFIFSNHWMNWVRQSPEKGLEWVAEIRSKSINSATHYAESVKGRFTISRDDSKSAVYLQMTDLRTEDTGVYYCSRNYYGSTYDYWGQGTTLTVSA
VL: DILLTQSPAILSVSPGERVSFSCRASQFVGSSIHWYQQRTNGSPRLLIKYASESMSGIPSRFSGSGSGTDFTLSINTVESEDIADYYCQQSHSWPFTFGSGTNLEVKR
modifications: single N-glycosylation site at position Asn297 ; chain 1 pos 300: Asn297 (EU) carries the single N-glycan; the glycoform depends on the CHO line (Inf or Inf-Sial)
Consider B1, for which the binding result is given as “no binding”.
